Laboratory results as given in patent US20240209104A1.

Tests used:
[1] = target: OX40 on OX40 over-expressed cells (UniProt P43489); experiment: flow cytometry, 1 µg/ml isotype control on OX40 over-expressed cells (PBS: 1388)
[2] = target: OX40 on OX40 over-expressed cells (UniProt P43489); experiment: flow cytometry, 1 µg/ml positive reference on OX40 over-expressed cells

OX40 on OX40 over-expressed cells, sequence (P43489 29-277): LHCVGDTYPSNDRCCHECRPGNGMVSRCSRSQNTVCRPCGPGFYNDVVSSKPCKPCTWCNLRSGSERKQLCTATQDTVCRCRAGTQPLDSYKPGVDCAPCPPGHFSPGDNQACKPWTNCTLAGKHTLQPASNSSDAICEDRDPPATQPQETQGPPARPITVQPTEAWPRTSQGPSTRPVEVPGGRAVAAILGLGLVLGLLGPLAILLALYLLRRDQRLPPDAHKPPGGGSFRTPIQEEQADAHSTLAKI

Substance	Y586 channel PE fluorescence value [1]	Y586 channel PE fluorescence value [2]
IgG2a isotype control (clone MG2a-53, Biogene) (antibody)	1830	
anti-OX40 antibody (clone ACT35, Biogene)		210000
